Source: US20230190932A1 (Genentech, Inc., priority 2021, published 2023)
“Also recorded” adds a separate entry of the source.

How the values were obtained:
CD4+ and CD8+ T-cell = settings: Haslett et al. 1998; Davies et al. 2001; cited from earlier work
[1] = Chen N et al. Clin Pharmacokinet. 2017; cited from earlier work
R/R NHL patients [2] = settings: in vivo
[3] = Study CO41942: mosunetuzumab pharmacokinetics in combination with lenalidomide vs popPK simulation of monotherapy (Study GO29781); assay type: in vivo, human; settings: 1/2/30 mg IV Q4W; N = 13; preliminary
R/R NHL patients [4] = experiment: Related study with monotherapy mosunetuzumab (IV): safety summary
[5] = tested on: patients with relapsed or refractory follicular lymphoma; settings: in vivo
Protocol: Patients with r/r FL after at least one prior systemic therapy are eligible to enter the study.
Lenalidomide 20 mg was the dose for all patients.

Nc1cccc2c1CN(C1CCC(=O)NC1=O)C2=O (racemic) [lenalidomide, (3RS)-3-(4-Amino-1-oxo-1,3-dihydro-2H-isoindol-2-yl)piperidine-2,6-dione]
immunomodulatory activity on T cells (CD4+ and CD8+ T-cell): enhance CD4+ and CD8+ T-cell co-stimulation, induce T-cell proliferation, and enhance IL-2 and IFN-γ | route of excretion [1]: primarily excreted in the urine

Mosunetuzumab: anti-CD20/anti-CD3 bispecific antibody, INN List 117, CAS Registry Number 1905409-39-3
AESI: Neutropenia/neutrophil count decrease (R/R NHL patients [2]): 56 (26.3) N (%) | mosunetuzumab PK in combination with lenalidomide compared with monotherapy [3]: similar; also recorded: consistent with what was expected | observed concentration measurements vs popPK model simulated 5th to 95th prediction intervals [3]: fell generally within | AESI: ALT increased (R/R NHL patients [4]; N = 213): 22 (10.3) N (%) | AESI: AST increased (R/R NHL patients [4]; N = 213): 14 (6.6) N (%) | AESI: Febrile neutropenia (R/R NHL patients [4]; N = 213): 6 (2.8) N (%) | AESI: Thrombocytopenia (R/R NHL patients [4]; N = 213): 14 (6.6) N (%) | AESI: Tumor flare (R/R NHL patients [4]; N = 213): 4 (1.9) N (%) | AESI: Tumor lysis syndrome (R/R NHL patients [4]; N = 213): 3 (1.4) N (%) | AEs leading to dose modification/interruption (R/R NHL patients [4]; N = 213): 29 (13.6) N (%) | AEs leading to dose modification/interruption: Mosunetuzumab (R/R NHL patients [4]; N = 213): 29 (13.6) N (%) | AEs leading to treatment withdrawal (R/R NHL patients [4]; N = 213): 7 (3.3) N (%) | AEs leading to treatment withdrawal: Mosunetuzumab (R/R NHL patients [4]; N = 213): 7 (3.3) N (%) | Deaths (R/R NHL patients [4]; N = 213): 64 (30.0) N (%) | Grade 3-5 AEs (R/R NHL patients [4]; N = 213): 141 (66.2) N (%) | Patients who experienced at least one adverse event (AE) (R/R NHL patients [4]; N = 213): 207 (97.2) N (%) | Serious AEs (R/R NHL patients [4]; N = 213): 107 (50.2) N (%) | Total number of AEs (R/R NHL patients [4]; N = 213): 2258 | Treatment-related AEs (R/R NHL patients [4]; N = 213): 183 (85.9) N (%) | Treatment-related AEs: Mosunetuzumab (R/R NHL patients [4]; N = 213): 183 (85.9) N (%) | Fatal AEs (R/R NHL patients [4]; N = 213, does not include death due to progressive disease): 5 (2.3) N (%) | AESI: Cytokine release syndrome (R/R NHL patients [4]; per ASTCT criteria, N = 213): 79 (37.1) N (%) | AESI by PT: Alanine aminotransferase increased [5]: 1 (6.3%) | AESI by PT: Aspartate aminotransferase increased [5]: 1 (6.3%) | AESI by PT: Cytokine release syndrome [5]: 5 (31.3%) | AESI by PT: Neutropenia [5]: 4 (25.0%) | AESI by PT: Pleural effusion [5]: 1 (6.3%) | AESI by PT: Thrombocytopenia [5]: 1 (6.3%) | AESI: Overall total number of events [5]: 20 | Blood and lymphatic system disorders: Total number of AESI events [5]: 10 | Blood and lymphatic system disorders: Total number of Grade 3-5 events [5]: 9 | Blood and lymphatic system disorders: patients with at least one AESI [5]: 4 (25.0%) | Blood and lymphatic system disorders: patients with at least one Grade 3-5 AE [5]: 4 (25.0%) | Grade 3-5 AE: Erythema (Skin and subcutaneous tissue disorders) [5]: 1 (6.3%) | Grade 3-5 AE: Erythema (listed under Investigations) [5]: 1 (6.3%) | Grade 3-5 AE: Neutropenia [5]: 4 (25.0%) | Grade 3-5 AE: Rash maculo-papular (Skin and subcutaneous tissue disorders) [5]: 1 (6.3%) | Grade 3-5 AE: Rash maculo-papular (listed under Investigations) [5]: 1 (6.3%) | Immune system disorders: Total number of AESI events [5]: 7 | Immune system disorders: patients with at least one AESI [5]: 5 (31.3%) | Investigations: Total number of AESI events [5]: 2 | Investigations: Total number of Grade 3-5 events [5]: 2 | Investigations: patients with at least one AESI [5]: 1 (6.3%) | Investigations: patients with at least one Grade 3-5 AE [5]: 1 (6.3%) | Respiratory, thoracic, and mediastinal disorders: Total number of AESI events [5]: 1 | Respiratory, thoracic, and mediastinal disorders: patients with at least one AESI [5]: 1 (6.3%) | Skin and subcutaneous tissue disorders: Total number of Grade 3-5 events [5]: 2 | Skin and subcutaneous tissue disorders: patients with at least one Grade 3-5 AE [5]: 2 (12.5%) | Total number of patients with at least one AESI [5]: 7 (43.8) % | Total number of patients with at least one Grade 3-5 AE [5]: 5 (31.3%)
